According to article PMC11804706 (Proceedings of the National Academy of Sciences of the …, 2025):

Experiments:
[1] = target: DnaJ, wild type (E. coli) (UniProt P08622); assay: pull-down
ClpB, wild type = ClpB, wild type (E. coli, UniProt P63284 1-857); assay: BLI
Chain of ClpB, wild type (P63284 whole entry): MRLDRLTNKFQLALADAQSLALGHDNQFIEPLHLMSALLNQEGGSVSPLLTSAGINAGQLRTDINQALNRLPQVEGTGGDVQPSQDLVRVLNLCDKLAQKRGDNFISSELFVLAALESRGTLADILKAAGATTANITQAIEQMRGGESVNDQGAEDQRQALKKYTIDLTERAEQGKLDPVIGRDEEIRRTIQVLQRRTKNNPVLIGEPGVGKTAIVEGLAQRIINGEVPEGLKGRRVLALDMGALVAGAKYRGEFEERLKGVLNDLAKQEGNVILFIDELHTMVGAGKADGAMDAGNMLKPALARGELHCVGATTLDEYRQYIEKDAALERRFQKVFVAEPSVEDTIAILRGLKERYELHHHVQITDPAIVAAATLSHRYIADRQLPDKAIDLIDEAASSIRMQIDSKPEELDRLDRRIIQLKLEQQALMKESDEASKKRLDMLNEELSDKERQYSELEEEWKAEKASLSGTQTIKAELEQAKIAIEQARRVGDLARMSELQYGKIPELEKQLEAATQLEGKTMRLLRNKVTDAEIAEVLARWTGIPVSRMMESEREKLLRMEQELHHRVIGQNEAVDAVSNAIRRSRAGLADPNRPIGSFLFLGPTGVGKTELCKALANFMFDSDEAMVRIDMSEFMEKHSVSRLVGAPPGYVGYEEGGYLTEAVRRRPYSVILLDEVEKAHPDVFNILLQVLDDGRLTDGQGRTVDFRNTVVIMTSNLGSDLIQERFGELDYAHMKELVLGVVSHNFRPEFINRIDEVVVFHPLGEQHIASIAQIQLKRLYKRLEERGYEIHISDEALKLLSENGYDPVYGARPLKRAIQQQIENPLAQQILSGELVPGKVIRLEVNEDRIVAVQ

Row | Molecule | binding as percent of wild-type ClpB [1] [%] | Kd (ClpB, wild type) [nM]
1 | ΔN ClpB (ClpB mutant lacking the NTD) (domain or fragment) | 40 | –
2 | DnaJ, wild type (natural protein, biotin (DnaJ-biotin in the pull-down assays with ClpB; sites not stated)) MAKQDYYEILGVSKTAEEREIRKAYKRLAMKYHPDRNQGDKEAEAKFKEIKEAYEVLTDSQKRAAYDQYGHAAFEQGGMGGGGFGGGADFSDIFGDVFGDIFGGGRGRQRAARGADLRYNMELTLEEAVRGVTKEIRIPTLEECDVCHGSGAKPGTQPQTCPTCHGSGQVQMRQGFFAVQQTCPHCQGRGTLIKDPCNKCHGHGRVERSKTLSVKIPAGVDTGDRIRLAGEGEAGEHGAPAGDLYVQVQVKQHPIFEREGNNLYCEVPINFAMAALGGEIEVPTLDGRVKLKVPGETQTGKLFRMRGKGVKSVRGGAQGDLLCRVVVETPVGLNERQKQLLQELQESFGGPTGEHNSPRSKSFFDGVKKFFDDLTR | – | 55.2 ± 9.9
